Reference: patent US10941182 (Amgen, dated 2021)
Starred links: 1 amine or outer side, 2 acyl side, 3 side chain; linkers in the order of their positions; H or OH if unused. Non-standard residues stand in square brackets, D forms with d. *: point of attachment. AC4Abu = α-carboxy-4-aminobutyric acid, O=C(C(CCN[*:1])C(=O)[*:3])[*:2]; Oic = O=C(O)[C@@H]1C[C@@H]2CCCC[C@@H]2N1; Phe(4-Cl) = N[C@@H](Cc1ccc(Cl)cc1)C(=O)O; dPhe(4-Cl) = N[C@H](Cc1ccc(Cl)cc1)C(=O)O; γGlu = O=C(O)[C@H](CCC(=O)[*:2])N[*:1]; NMeR = CN[C@@H](CCCNC(=N)N)C(=O)O; Tridecanoyl = CCCCCCCCCCCCC(=O)*; hArg = N=C(N)NCCCC[C@H](N)C(=O)O; Cha = N[C@@H](CC1CCCCC1)C(=O)O; αMeL = CC(C)C[C@](C)(N)C(=O)O; β3hL = CC(C)C[C@H](N)CC(=O)O; αMeP = C[C@@]1(C(=O)O)CCCN1; Nle = CCCC[C@H](N)C(=O)O; Deg = CCC(N)(CC)C(=O)O; AEEA = NCCOCCOCC(=O)O; BLeu = β-leucine

T1: rat APJ receptor (rat, UniProt Q9JHG3 1-377)
T1 sequence (looked up): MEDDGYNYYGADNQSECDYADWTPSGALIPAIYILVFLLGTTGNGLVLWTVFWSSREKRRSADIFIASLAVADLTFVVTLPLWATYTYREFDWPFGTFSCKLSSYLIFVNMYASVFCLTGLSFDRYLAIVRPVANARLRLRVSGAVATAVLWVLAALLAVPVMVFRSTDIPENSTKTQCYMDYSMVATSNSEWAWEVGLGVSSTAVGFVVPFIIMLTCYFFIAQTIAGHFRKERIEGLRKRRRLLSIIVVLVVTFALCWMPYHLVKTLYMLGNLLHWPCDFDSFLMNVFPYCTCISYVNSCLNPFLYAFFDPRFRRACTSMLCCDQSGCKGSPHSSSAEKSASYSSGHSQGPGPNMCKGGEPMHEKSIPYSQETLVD

T2: human APJ receptor (human, UniProt P35414 1-380)
T2 sequence (looked up): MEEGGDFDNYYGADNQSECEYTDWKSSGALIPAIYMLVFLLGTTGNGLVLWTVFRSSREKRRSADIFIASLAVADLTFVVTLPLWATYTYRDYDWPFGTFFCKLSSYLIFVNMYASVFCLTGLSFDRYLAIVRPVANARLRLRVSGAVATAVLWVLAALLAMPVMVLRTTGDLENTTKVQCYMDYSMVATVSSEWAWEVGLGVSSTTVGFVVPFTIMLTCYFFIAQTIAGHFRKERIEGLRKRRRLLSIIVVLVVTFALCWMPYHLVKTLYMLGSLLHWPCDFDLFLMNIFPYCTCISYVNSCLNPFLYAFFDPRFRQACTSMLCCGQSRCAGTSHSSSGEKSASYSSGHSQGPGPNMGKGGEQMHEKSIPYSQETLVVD

B1: SEQ ID NO: 300 (peptide)
peptide: Tridecanoyl-[γGlu][AEEA][AEEA][β3hL][hArg]P[NMeR][Cha]SHKG[Oic][Nle]P[dPhe(4-Cl)]-OH
SMILES: CCCCCCCCCCCCC(=O)N[C@@H](CCC(=O)NCCOCCOCC(=O)NCCOCCOCC(=O)N[C@H](CC(=O)N[C@@H](CCCCNC(=N)N)C(=O)N1CCC[C@H]1C(=O)N(C)[C@@H](CCCNC(=N)N)C(=O)N[C@@H](CC1CCCCC1)C(=O)N[C@@H](CO)C(=O)N[C@@H](Cc1c[nH]cn1)C(=O)N[C@@H](CCCCN)C(=O)NCC(=O)N1[C@H](C(=O)N[C@@H](CCCC)C(=O)N2CCC[C@H]2C(=O)N[C@H](Cc2ccc(Cl)cc2)C(=O)O)C[C@@H]2CCCC[C@@H]21)CC(C)C)C(=O)O
B2: SEQ ID NO: 558 (peptide)
peptide: Tridecanoyl-[AC4Abu][AEEA][AEEA][Deg][hArg]P[dR][Cha]SHKG[Oic][Nle]P[Phe(4-Cl)]-OH
SMILES: CCCCCCCCCCCCC(=O)NCCC(C(=O)O)C(=O)NCCOCCOCC(=O)NCCOCCOCC(=O)NC(CC)(CC)C(=O)N[C@@H](CCCCNC(=N)N)C(=O)N1CCC[C@H]1C(=O)N[C@H](CCCNC(=N)N)C(=O)N[C@@H](CC1CCCCC1)C(=O)N[C@@H](CO)C(=O)N[C@@H](Cc1c[nH]cn1)C(=O)N[C@@H](CCCCN)C(=O)NCC(=O)N1[C@H](C(=O)N[C@@H](CCCC)C(=O)N2CCC[C@H]2C(=O)N[C@@H](Cc2ccc(Cl)cc2)C(=O)O)C[C@@H]2CCCC[C@@H]21

Biological target: T1, rat APJ receptor
Assay: cell-based or functional assay

EC50 Rat APJ Receptor	Binder
0.285 nM	XXXLRPRLSHKGPXPF ({TDA}[AC4Abu][Aeea][Aeea][BhLeu]RP[NMeArg]LSHKGP[Nle]P[4-Cl-F]{COOH}) [SEQ ID NO: 421]
36.4 nM	B1
12.5 nM	B2
1.5 nM	Tridecanoyl-[γGlu][AEEA][AEEA][BLeu]RP[NMeR][BLeu]SHKG[Oic][Nle]P[Phe(4-Cl)]-OH [SEQ ID NO: 394]
24.9 nM	Tridecanoyl-[γGlu][AEEA][AEEA][BLeu][hArg]P[NMeR][Cha]SHKG[Oic][Nle]P[dPhe(4-Cl)]-OH [SEQ ID NO: 298]
0.727 nM	Tridecanoyl-[γGlu][AEEA][AEEA][BLeu]RP[NMeR][αMeL]SHKG[Oic][Nle][αMeP][Phe(4-Cl)]-OH [SEQ ID NO: 388]
0.503 nM	Tridecanoyl-[γGlu][AEEA][AEEA][BLeu]RP[NMeR][αMeL]SHKG[Oic][Nle]P[Phe(4-Cl)]-OH [SEQ ID NO: 374]
1.02 nM	Tridecanoyl-[γGlu][AEEA][AEEA][BLeu]RP[hArg][BLeu]SHKG[Oic][Nle]P[Phe(4-Cl)]-OH [SEQ ID NO: 395]
4.88 nM	Tridecanoyl-[AC4Abu][AEEA][AEEA][BLeu]R[αMeP][hArg][αMeL]SHKG[Oic][Nle][αMeP][Phe(4-Cl)]-OH [SEQ ID NO: 552]
2.67 nM	Tridecanoyl-[γGlu][AEEA][AEEA][BLeu]RP[NMeR][Cha]SHKG[Oic][Nle]P[Phe(4-Cl)]-OH [SEQ ID NO: 393]

Biological target: T2, human APJ receptor
Assay: cell-based or functional assay

EC50 Human APJ Receptor	Binder
0.0934 nM	XXXLRPRLSHKGPXPF ({TDA}[AC4Abu][Aeea][Aeea][BhLeu]RP[NMeArg]LSHKGP[Nle]P[4-Cl-F]{COOH}) [SEQ ID NO: 421]
41.5 nM	B1
3.4 nM	B2
0.297 nM	Tridecanoyl-[γGlu][AEEA][AEEA][BLeu]RP[NMeR][BLeu]SHKG[Oic][Nle]P[Phe(4-Cl)]-OH [SEQ ID NO: 394]
32.8 nM	Tridecanoyl-[γGlu][AEEA][AEEA][BLeu][hArg]P[NMeR][Cha]SHKG[Oic][Nle]P[dPhe(4-Cl)]-OH [SEQ ID NO: 298]
0.706 nM	Tridecanoyl-[γGlu][AEEA][AEEA][BLeu]RP[NMeR][αMeL]SHKG[Oic][Nle][αMeP][Phe(4-Cl)]-OH [SEQ ID NO: 388]
0.305 nM	Tridecanoyl-[γGlu][AEEA][AEEA][BLeu]RP[NMeR][αMeL]SHKG[Oic][Nle]P[Phe(4-Cl)]-OH [SEQ ID NO: 374]
0.741 nM	Tridecanoyl-[γGlu][AEEA][AEEA][BLeu]RP[hArg][BLeu]SHKG[Oic][Nle]P[Phe(4-Cl)]-OH [SEQ ID NO: 395]
1.96 nM	Tridecanoyl-[AC4Abu][AEEA][AEEA][BLeu]R[αMeP][hArg][αMeL]SHKG[Oic][Nle][αMeP][Phe(4-Cl)]-OH [SEQ ID NO: 552]
0.769 nM	Tridecanoyl-[γGlu][AEEA][AEEA][BLeu]RP[NMeR][Cha]SHKG[Oic][Nle]P[Phe(4-Cl)]-OH [SEQ ID NO: 393]
